We go through three molecules from US20100092561A1 (published 2010).

Starred links: 1 amine or outer side, 2 acyl side, 3 side chain; linkers in the order of their positions; H or OH if unused. Non-standard residues stand in square brackets, D forms with d. No end group written: not given here. βMeF(S) = S-β-methyl-L-phenylalanine, (2S,3S)-β-methylphenylalanine, C[C@@H](c1ccccc1)[C@H](N[*:1])C(=O)[*:2]; Phe(3R-Me) = C[C@H](c1ccccc1)[C@H](N)C(=O)O

This test addresses NK1 receptor (rabbit). The test can be described thus: cell-based or functional assay.

Regarding RPKPQQF[βMeF(S)]GLM (not fully specified (C-terminus); ends and bridges not checked) [8S-(βMeF)SP], the “biological activity relative to SP (rabbit iris sphincter contraction)” value stood at 10 fold reduction.
RPKPQQ[Phe(3R-Me)][Phe(3R-Me)]GLM (not fully specified (C-terminus); ends and bridges not checked) [7R,8R-(βMeF)2SP]: the “biological activity relative to SP (rabbit iris sphincter contraction)” value turned out to be 10 fold reduction and the “concentration at half maximal contraction (EC50), rabbit iris sphincter muscle” value turned out to be 10 nM.
For RPKPQQF[Phe(3R-Me)]GLM (not fully specified (C-terminus); ends and bridges not checked) [8R-(βMeF)SP] the same measures were 4 fold enhancement and 0.15 nM.
